In patent publication US20260274993A1 (HUMMINGBIRD BIOSCIENCE PTE, published 2026):

How the values were obtained:
3A6 [1] = biological target: T1, 3A6; assay: ELISA, human IgG1 antigen captured on anti-human IgG Fc;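 note: humanized antibodies bound to human IgG1 antigen captured at 1 µg/ml on anti-human IgG Fc plates, detected with anti-mouse IgG Fc/HRP, VSTB112 serving as negative control protein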
T1 construct: also called 3A6 antibody (containing VH4-34 antigen); 3A6 (VH4-34 antigen)
Protocol: (§1) The binding affinity of each humanized antibody for 3A6 antibody (containing VH4-34 antigen), 3A6-FR1 (VH4-34 FR1 mutant) and VSTB112 (negative control protein) was evaluated.
(§2) Plates were coated with 1 ug/ml of anti-human IgG Fc overnight at 4° C. Plates were washed thrice with PBS/0.05% Tween (PBST) before blocking with 5% BSA for 1 h at room temp (RT). Plates were then washed again before addition of 1 μg/ml of 3A6 (VH4-34 antigen), 3A6-FR1 (VH4-34 FR1 mutant) or VSTB112 (negative control protein) human IgG1 proteins. Plates were washed thrice. […] After washing the plates, anti-mouse IgG Fc/HRP diluted 1:5000 in 1% BSA was added and incubated for 1 h at RT. Plates were washed before detection using 1-step ELISA substrate.

3A6 mutant FR1 = biological target: T2, 3A6 mutant FR1; assay: as above
T2 construct: also called 3A6 FR1; 3A6-FR1 (VH4-34 FR1 mutant)
T2 sequence (VH, as listed by the source, chain 1 of 2): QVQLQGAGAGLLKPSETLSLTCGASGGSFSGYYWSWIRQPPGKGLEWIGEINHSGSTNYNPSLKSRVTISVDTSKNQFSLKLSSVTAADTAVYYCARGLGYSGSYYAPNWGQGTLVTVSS
T2 sequence (VL, as listed by the source, chain 2 of 2): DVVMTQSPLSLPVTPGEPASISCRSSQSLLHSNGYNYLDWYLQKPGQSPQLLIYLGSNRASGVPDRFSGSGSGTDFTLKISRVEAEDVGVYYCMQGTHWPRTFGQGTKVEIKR
Protocol: as §1, §2

zanolimumab = biological target: T3, zanolimumab; assay: flow cytometry (geomean MFI), CHO cells overexpressing the surface antibody
T3 construct: VH4-34-containing antibody used as the antigen, overexpressed on the surface of CHO cells; also called Zano.hIgG1
T3 sequence (VH, as listed by the source, chain 1 of 2): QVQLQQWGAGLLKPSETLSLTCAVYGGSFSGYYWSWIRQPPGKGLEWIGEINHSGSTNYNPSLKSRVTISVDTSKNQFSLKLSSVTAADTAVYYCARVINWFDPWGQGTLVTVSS
T3 sequence (VL, as listed by the source, chain 2 of 2): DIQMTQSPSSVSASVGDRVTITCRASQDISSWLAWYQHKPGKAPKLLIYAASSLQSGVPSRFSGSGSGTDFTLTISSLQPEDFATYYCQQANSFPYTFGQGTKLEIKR

tabalumab = assay: as above
Chain of tabalumab (VH, as listed by the source, chain 1 of 2): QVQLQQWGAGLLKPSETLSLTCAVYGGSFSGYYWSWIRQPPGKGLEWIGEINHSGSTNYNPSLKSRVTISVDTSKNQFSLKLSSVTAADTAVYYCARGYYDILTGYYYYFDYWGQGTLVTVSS
Chain of tabalumab (VL, as listed by the source, chain 2 of 2): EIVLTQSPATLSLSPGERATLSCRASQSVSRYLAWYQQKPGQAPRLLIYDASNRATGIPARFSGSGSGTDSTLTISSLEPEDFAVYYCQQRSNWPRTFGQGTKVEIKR

3A6 [2] = biological target: T1, 3A6; assay: as above
[3] = biological target: T4, antibodies containing VH4-34 endogenously expressed by cell line OCI-Ly3; assay: flow cytometry, EC50 of MFI, OCI-Ly3 cells endogenously expressing VH4-34
T4 construct: Whole, on cells; also called VH4-34-expressing cell line OCI-Ly3
Protocol: (§3) Binding was assessed by FACS. Briefly, cells were assayed in PBS with 0.5% BSA and 2 mM EDTA. Live dead staining was performed with a live dead cell dye for 15 minutes at 4° C. […] Following this, cells were incubated with a secondary PE goat anti-mouse IgG (1:300) for 30 mins at 4° C. and PE readout was measured.

[4] = biological target: T4, antibodies containing VH4-34 …; assay: flow cytometry, EC50 of % parent, OCI-Ly3 cells endogenously expressing VH4-34
Protocol: as §3

T1 sequence (VH, as listed by the source, chain 1 of 2): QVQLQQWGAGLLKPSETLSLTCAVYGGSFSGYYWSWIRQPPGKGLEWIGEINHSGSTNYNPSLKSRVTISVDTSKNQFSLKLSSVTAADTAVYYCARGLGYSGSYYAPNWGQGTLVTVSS

Row | Binder | EC50 (3A6 [1]) [nM] | binding result (3A6 mutant FR1) | EC50 (zanolimumab) [nM] | EC50 (tabalumab) [nM] | EC50 (3A6 [2]) [nM] | EC50 [3] [nM] | EC50 [4] [nM]
1 | D011-7016-LD2 H4/L4 IgG2a (antibody, V domains shown) VH: QVQLQESGPGLVKPSETLSLTCTVSWDAITSGYWNWVRQPPGNKLEYMGYISYSGSAHYNPSLKSRITISRDTSKNQYSLKLSSVTAADTAVYYCASYSFAYWGQGTLVTVSS VL: EIVLTQSPDFQSVTPKEKVTITCRASQSIDNQLHWYQQKPDQSPKLLIKYASQSISGVPSRFSGSGSGTDFTLTISSLEAEDAATYFCQQSYGWPYTFGGGTKLEIKR | 0.0365 | no binding (tested: 1 µg/ml (highest concentration)) |  |  |  |  | 
2 | D011-7016-LD2 H5/L3 IgG2a (antibody, V domains shown) VH: QVQLQESGPGLVKPSQTLSLTCTVSWDAITSGYWNWVRQHPGNKLEYMGYISYSGSAHYNPSLKSRITISRDTSKNQYSLKLSSVTAADTAVYYCASYSFAYWGQGTLVTVSS VL: DIQMTQSPSSLSASVGDRVTITCRASQSIDNQLHWYQQKPGKSPNLLINYASQSISGVPSRFSGSGSGTDFTLTISSLQPEDFATYFCQQSYGWPYTFGGGTKVEIKR | 0.282 | no binding (tested: 1 µg/ml (highest concentration)) |  |  |  |  | 
3 | D011-7016-LD2 H5/L1 IgG2a (antibody, V domains shown) VH: QVQLQESGPGLVKPSQTLSLTCTVSWDAITSGYWNWVRQHPGNKLEYMGYISYSGSAHYNPSLKSRITISRDTSKNQYSLKLSSVTAADTAVYYCASYSFAYWGQGTLVTVSS VL: DIVMTQSPPSLSVTPGEPASLSCRASQSIDNQLHWYLQKPGQSPQLLINYASQSISGVTDRFSGSGSGTDFTLKISRVEAEDVGVYFCQQSYGWPYTFGGGTKVEIKR | 0.0295 | no binding (tested: 1 µg/ml (highest concentration)) | 0.645 | 0.313 | 0.59 | 0.308 | 0.0047
4 | D011-7016-LD2 H1/L1 IgG2a (antibody, V domains shown) VH: QVQLQESGPGLVKPSQTLSLTCTVSWDAITSGYWNWVRQHPGKGLEYMGYISYSGSAHYNPSLKSRITISRDTSKNQYSLKLSSVTAADTATYYCASYSFAYWGQGTLVTVSS VL: DIVMTQSPPSLSVTPGEPASLSCRASQSIDNQLHWYLQKPGQSPQLLINYASQSISGVTDRFSGSGSGTDFTLKISRVEAEDVGVYFCQQSYGWPYTFGGGTKVEIKR | 0.0446 | no binding (tested: 1 µg/ml (highest concentration)) |  |  |  |  | 
5 | D011-7016-LD2 H1/L3 IgG2a (antibody, V domains shown) VH: QVQLQESGPGLVKPSQTLSLTCTVSWDAITSGYWNWVRQHPGKGLEYMGYISYSGSAHYNPSLKSRITISRDTSKNQYSLKLSSVTAADTATYYCASYSFAYWGQGTLVTVSS VL: DIQMTQSPSSLSASVGDRVTITCRASQSIDNQLHWYQQKPGKSPNLLINYASQSISGVPSRFSGSGSGTDFTLTISSLQPEDFATYFCQQSYGWPYTFGGGTKVEIKR | 0.0469 | no binding (tested: 1 µg/ml (highest concentration)) |  |  |  |  | 
6 | D011-7016-LD2 H3/L4 IgG2a (antibody, V domains shown) VH: QVQLQESGPGLVKPSETLSLTCSVSWDAITSGYWNWVRQPPGNKLEYMGYISYSGSAHYNPSLKSRITISRDTSKNQYSLTLTSMTAADTALYYCASYSFAYWGQGTLVTVSS VL: EIVLTQSPDFQSVTPKEKVTITCRASQSIDNQLHWYQQKPDQSPKLLIKYASQSISGVPSRFSGSGSGTDFTLTISSLEAEDAATYFCQQSYGWPYTFGGGTKLEIKR | 0.0627 | no binding (tested: 1 µg/ml (highest concentration)) |  |  |  |  | 
7 | D011-7016-LD2 H3/L1 IgG2a (antibody, V domains shown) VH: QVQLQESGPGLVKPSETLSLTCSVSWDAITSGYWNWVRQPPGNKLEYMGYISYSGSAHYNPSLKSRITISRDTSKNQYSLTLTSMTAADTALYYCASYSFAYWGQGTLVTVSS VL: DIVMTQSPPSLSVTPGEPASLSCRASQSIDNQLHWYLQKPGQSPQLLINYASQSISGVTDRFSGSGSGTDFTLKISRVEAEDVGVYFCQQSYGWPYTFGGGTKVEIKR | 0.0398 | no binding (tested: 1 µg/ml (highest concentration)) |  |  |  | 0.292 | 0.00375
8 | D011-7016-LD2 H4/L1 IgG2a (antibody, V domains shown) VH: QVQLQESGPGLVKPSETLSLTCTVSWDAITSGYWNWVRQPPGNKLEYMGYISYSGSAHYNPSLKSRITISRDTSKNQYSLKLSSVTAADTAVYYCASYSFAYWGQGTLVTVSS VL: DIVMTQSPPSLSVTPGEPASLSCRASQSIDNQLHWYLQKPGQSPQLLINYASQSISGVTDRFSGSGSGTDFTLKISRVEAEDVGVYFCQQSYGWPYTFGGGTKVEIKR | 0.0521 | no binding (tested: 1 µg/ml (highest concentration)) |  |  |  |  | 
9 | D011-7016-LD2 H3/L3 IgG2a (antibody, V domains shown) VH: QVQLQESGPGLVKPSETLSLTCSVSWDAITSGYWNWVRQPPGNKLEYMGYISYSGSAHYNPSLKSRITISRDTSKNQYSLTLTSMTAADTALYYCASYSFAYWGQGTLVTVSS VL: DIQMTQSPSSLSASVGDRVTITCRASQSIDNQLHWYQQKPGKSPNLLINYASQSISGVPSRFSGSGSGTDFTLTISSLQPEDFATYFCQQSYGWPYTFGGGTKVEIKR | 0.169 | no binding (tested: 1 µg/ml (highest concentration)) |  |  |  |  | 
10 | D011-7016-LD2 H5/L4 IgG2a (antibody, V domains shown) VH: QVQLQESGPGLVKPSQTLSLTCTVSWDAITSGYWNWVRQHPGNKLEYMGYISYSGSAHYNPSLKSRITISRDTSKNQYSLKLSSVTAADTAVYYCASYSFAYWGQGTLVTVSS VL: EIVLTQSPDFQSVTPKEKVTITCRASQSIDNQLHWYQQKPDQSPKLLIKYASQSISGVPSRFSGSGSGTDFTLTISSLEAEDAATYFCQQSYGWPYTFGGGTKLEIKR | 0.0495 | no binding (tested: 1 µg/ml (highest concentration)) |  |  |  | 0.282 | 0.00251
11 | D011-7016-LD2 H1/L4 IgG2a (antibody, V domains shown) VH: QVQLQESGPGLVKPSQTLSLTCTVSWDAITSGYWNWVRQHPGKGLEYMGYISYSGSAHYNPSLKSRITISRDTSKNQYSLKLSSVTAADTATYYCASYSFAYWGQGTLVTVSS VL: EIVLTQSPDFQSVTPKEKVTITCRASQSIDNQLHWYQQKPDQSPKLLIKYASQSISGVPSRFSGSGSGTDFTLTISSLEAEDAATYFCQQSYGWPYTFGGGTKLEIKR | 0.0234 | no binding (tested: 1 µg/ml (highest concentration)) |  |  |  | 0.46 | 0.00765
12 | D011-7016-LD2 H3/L2 IgG2a (antibody, V domains shown) VH: QVQLQESGPGLVKPSETLSLTCSVSWDAITSGYWNWVRQPPGNKLEYMGYISYSGSAHYNPSLKSRITISRDTSKNQYSLTLTSMTAADTALYYCASYSFAYWGQGTLVTVSS VL: DIVMTQSPPSLSVTPGESASISCRASQSIDNQLHWYLQKPGQSPQLLINYASQSISGVTDRFSGSGSGTDFTLKISRVEAEDVGMYFCQQSYGWPYTFGGGTKVEIKR | 0.053 | no binding (tested: 1 µg/ml (highest concentration)) |  |  |  |  | 
13 | D011-7016-LD2 H4/L2 IgG2a (antibody, V domains shown) VH: QVQLQESGPGLVKPSETLSLTCTVSWDAITSGYWNWVRQPPGNKLEYMGYISYSGSAHYNPSLKSRITISRDTSKNQYSLKLSSVTAADTAVYYCASYSFAYWGQGTLVTVSS VL: DIVMTQSPPSLSVTPGESASISCRASQSIDNQLHWYLQKPGQSPQLLINYASQSISGVTDRFSGSGSGTDFTLKISRVEAEDVGMYFCQQSYGWPYTFGGGTKVEIKR | 0.0532 | no binding (tested: 1 µg/ml (highest concentration)) |  |  |  | 0.33 | 0.00428
14 | D011-7016-LD2 H5/L2 IgG2a (antibody, V domains shown) VH: QVQLQESGPGLVKPSQTLSLTCTVSWDAITSGYWNWVRQHPGNKLEYMGYISYSGSAHYNPSLKSRITISRDTSKNQYSLKLSSVTAADTAVYYCASYSFAYWGQGTLVTVSS VL: DIVMTQSPPSLSVTPGESASISCRASQSIDNQLHWYLQKPGQSPQLLINYASQSISGVTDRFSGSGSGTDFTLKISRVEAEDVGMYFCQQSYGWPYTFGGGTKVEIKR | 0.0432 | no binding (tested: 1 µg/ml (highest concentration)) | 0.65 | 0.284 | 0.59 | 0.281 | 0.00438
15 | D011-7016-LD2 H0/L0 IgG2a (antibody, V domains shown) VH: QVQLQESGPGLVKPSETLSLTCTVSGDAITSGYWNWIRQPPGKGLEYMGYISYSGSAHYNPSLKSRITISRDTSKNQYSLKLSSVTAADTAVYYCASYSFAYWGQGTLVTVSS VL: EIVMTQSPDFQSVTPKEKVTITCRASQSIDNQLHWYQQKPDQSPKLLINYASQSISGVPSRFSGSGSGTDFTLTISSLEAEDAATYYCQQSYGWPYTFGQGTKLEIKR | 0.0369 | no binding (tested: 1 µg/ml (highest concentration)) | 0.453 | 0.376 | 0.605 | 0.271 | 0.00384
16 | D011-7016-LD2 H1/L2 IgG2a (antibody, V domains shown) VH: QVQLQESGPGLVKPSQTLSLTCTVSWDAITSGYWNWVRQHPGKGLEYMGYISYSGSAHYNPSLKSRITISRDTSKNQYSLKLSSVTAADTATYYCASYSFAYWGQGTLVTVSS VL: DIVMTQSPPSLSVTPGESASISCRASQSIDNQLHWYLQKPGQSPQLLINYASQSISGVTDRFSGSGSGTDFTLKISRVEAEDVGMYFCQQSYGWPYTFGGGTKVEIKR | 0.0427 | no binding (tested: 1 µg/ml (highest concentration)) |  |  |  |  | 
17 | D011-7016-LD2 H4/L3 IgG2a (antibody, V domains shown) VH: QVQLQESGPGLVKPSETLSLTCTVSWDAITSGYWNWVRQPPGNKLEYMGYISYSGSAHYNPSLKSRITISRDTSKNQYSLKLSSVTAADTAVYYCASYSFAYWGQGTLVTVSS VL: DIQMTQSPSSLSASVGDRVTITCRASQSIDNQLHWYQQKPGKSPNLLINYASQSISGVPSRFSGSGSGTDFTLTISSLQPEDFATYFCQQSYGWPYTFGGGTKVEIKR | 0.011 | no binding (tested: 1 µg/ml (highest concentration)) |  |  |  |  | 
